{"source": "paper PMC9482650", "about": "“Quantitative fragmentomics allow affinity mapping of interactomes” (Nature Communications, 2022)", "assay_in_all_cases": "holdup assay", "set-up_in_all_cases": "key: below the threshold = too weak to quantify, mostly under pKd 3.1 to 4", "key": {"APBA3_2, O96018": {"biological_target": "T1, APBA3_2, O96018", "T1 sequence (O96018 480-570, limits assumed, looked up)": "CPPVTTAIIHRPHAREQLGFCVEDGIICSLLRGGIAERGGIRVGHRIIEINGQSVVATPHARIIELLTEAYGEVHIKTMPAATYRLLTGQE"}, "INTU, Q9ULD6": {"biological_target": "T2, INTU, Q9ULD6", "T2 sequence (Q9ULD6 180-273, limits assumed, looked up)": "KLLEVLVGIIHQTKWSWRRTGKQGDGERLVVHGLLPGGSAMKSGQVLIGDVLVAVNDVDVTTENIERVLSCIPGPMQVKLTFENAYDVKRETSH"}, "LNX1_4, Q8TBB1": {"biological_target": "LNX1_4, Q8TBB1", "sequence (Q8TBB1 631-726)": "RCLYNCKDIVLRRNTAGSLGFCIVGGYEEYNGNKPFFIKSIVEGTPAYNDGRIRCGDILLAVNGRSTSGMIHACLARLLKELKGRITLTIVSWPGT"}, "MAGI1_3, Q96QZ7": {"biological_target": "MAGI1_3, Q96QZ7", "sequence (Q96QZ7 638-725)": "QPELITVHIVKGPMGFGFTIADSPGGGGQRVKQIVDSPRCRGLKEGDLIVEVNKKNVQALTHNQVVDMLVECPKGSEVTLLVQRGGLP"}, "MPDZ_2, O75970": {"biological_target": "T3, MPDZ_2, O75970", "T3 sequence (O75970 252-347, limits assumed, looked up)": "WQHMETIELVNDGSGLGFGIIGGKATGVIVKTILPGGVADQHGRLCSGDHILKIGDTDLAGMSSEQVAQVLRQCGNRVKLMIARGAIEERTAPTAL"}, "NHERF1_2, O14745": {"biological_target": "T4, NHERF1_2, O14745", "T4 sequence (O14745 149-244, limits assumed, looked up)": "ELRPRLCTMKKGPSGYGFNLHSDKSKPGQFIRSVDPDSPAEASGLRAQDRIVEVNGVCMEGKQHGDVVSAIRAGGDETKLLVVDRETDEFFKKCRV"}, "NHERF4_3, Q86UT5": {"biological_target": "NHERF4_3, Q86UT5", "sequence (Q86UT5 325-412)": "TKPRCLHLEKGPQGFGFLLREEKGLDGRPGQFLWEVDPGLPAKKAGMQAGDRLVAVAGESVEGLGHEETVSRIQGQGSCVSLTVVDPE"}, "PARD3B_3, Q8TEW8": {"biological_target": "PARD3B_3, Q8TEW8", "sequence (Q8TEW8 490-594)": "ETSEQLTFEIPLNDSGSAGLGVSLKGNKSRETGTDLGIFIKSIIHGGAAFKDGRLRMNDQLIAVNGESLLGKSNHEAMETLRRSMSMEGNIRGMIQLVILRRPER"}, "PARD6B, Q9BYG5": {"biological_target": "T5, PARD6B, Q9BYG5", "T5 sequence (Q9BYG5 152-260, limits assumed, looked up)": "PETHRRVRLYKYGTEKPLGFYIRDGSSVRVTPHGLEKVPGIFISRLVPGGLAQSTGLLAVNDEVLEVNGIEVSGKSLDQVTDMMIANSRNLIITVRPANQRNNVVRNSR"}, "PDLIM4, P50479": {"biological_target": "PDLIM4, P50479", "sequence (P50479 1-83)": "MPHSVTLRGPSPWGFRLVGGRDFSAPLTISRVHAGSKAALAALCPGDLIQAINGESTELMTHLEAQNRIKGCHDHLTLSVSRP"}, "PDZD2_3, O15018": {"biological_target": "T6, PDZD2_3, O15018", "T6 sequence (O15018 581-682, limits assumed, looked up)": "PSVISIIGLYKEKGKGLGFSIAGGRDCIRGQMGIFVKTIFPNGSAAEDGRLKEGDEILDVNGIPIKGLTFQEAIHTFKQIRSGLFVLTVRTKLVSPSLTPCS"}, "PDZD2_5, O15018": {"biological_target": "T7, PDZD2_5, O15018", "T7 sequence (O15018 2617-2716, limits assumed, looked up)": "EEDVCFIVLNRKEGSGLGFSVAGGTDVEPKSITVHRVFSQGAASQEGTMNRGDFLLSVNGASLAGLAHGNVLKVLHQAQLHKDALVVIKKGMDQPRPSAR"}, "PDZD8, Q8NEN9": {"biological_target": "T8, PDZD8, Q8NEN9", "T8 sequence (Q8NEN9 361-459, limits assumed, looked up)": "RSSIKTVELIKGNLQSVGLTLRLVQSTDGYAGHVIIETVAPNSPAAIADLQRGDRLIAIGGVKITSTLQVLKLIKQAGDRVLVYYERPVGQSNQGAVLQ"}, "PTPN13_5, Q12923": {"biological_target": "T9, PTPN13_5, Q12923", "T9 sequence (Q12923 1877-1975, limits assumed, looked up)": "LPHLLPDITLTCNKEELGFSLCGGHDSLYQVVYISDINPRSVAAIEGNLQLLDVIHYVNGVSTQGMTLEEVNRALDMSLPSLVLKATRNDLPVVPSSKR"}, "PTPN4, P29074": {"biological_target": "T10, PTPN4, P29074", "T10 sequence (P29074 512-599, limits assumed, looked up)": "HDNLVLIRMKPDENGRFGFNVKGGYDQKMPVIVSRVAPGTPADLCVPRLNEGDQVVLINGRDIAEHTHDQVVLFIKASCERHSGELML"}, "RGS3, P49796-9": {"biological_target": "RGS3, P49796-9", "sequence (P49796 other isoform, or with tags, fused parts or gaps)": "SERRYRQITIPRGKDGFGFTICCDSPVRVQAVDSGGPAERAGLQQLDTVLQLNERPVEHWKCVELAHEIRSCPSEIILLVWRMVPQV"}, "RIMS1, Q86UR5": {"biological_target": "RIMS1, Q86UR5", "sequence (Q86UR5 584-692)": "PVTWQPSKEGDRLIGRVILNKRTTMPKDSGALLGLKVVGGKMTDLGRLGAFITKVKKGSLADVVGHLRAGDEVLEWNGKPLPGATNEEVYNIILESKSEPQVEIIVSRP"}, "SHROOM2, Q13796": {"biological_target": "T11, SHROOM2, Q13796", "T11 sequence (Q13796 21-118, limits assumed, looked up)": "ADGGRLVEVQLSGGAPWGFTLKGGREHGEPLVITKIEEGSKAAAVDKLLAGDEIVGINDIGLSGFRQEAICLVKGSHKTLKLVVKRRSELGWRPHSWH"}, "SIPA1L3, O60292": {"biological_target": "T12, SIPA1L3, O60292", "T12 sequence (O60292 961-1052, limits assumed, looked up)": "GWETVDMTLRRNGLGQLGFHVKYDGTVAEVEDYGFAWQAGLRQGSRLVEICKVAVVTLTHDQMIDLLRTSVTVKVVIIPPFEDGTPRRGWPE"}, "SYNPO2L, Q9H987": {"biological_target": "T13, SYNPO2L, Q9H987", "T13 sequence (Q9H987 1-98, limits assumed, looked up)": "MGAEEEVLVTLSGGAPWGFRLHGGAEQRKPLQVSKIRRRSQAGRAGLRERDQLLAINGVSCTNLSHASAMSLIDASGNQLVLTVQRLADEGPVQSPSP"}, "TJP3_2, O95049": {"biological_target": "T14, TJP3_2, O95049", "T14 sequence (O95049 190-282, limits assumed, looked up)": "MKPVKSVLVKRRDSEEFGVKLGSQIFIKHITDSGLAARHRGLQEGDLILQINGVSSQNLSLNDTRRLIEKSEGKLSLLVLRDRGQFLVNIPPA"}, "USH1C_3, Q9Y6N9": {"biological_target": "T15, USH1C_3, Q9Y6N9", "T15 sequence (Q9Y6N9 447-547, limits assumed, looked up)": "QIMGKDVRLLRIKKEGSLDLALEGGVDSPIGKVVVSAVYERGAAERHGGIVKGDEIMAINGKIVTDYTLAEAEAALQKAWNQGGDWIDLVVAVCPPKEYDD"}, "[1]": {"settings": "plain residues with an end cap or a label only (N-terminal biotin on a linker: none)"}, "[2]": {"settings": "plain residues with an end cap or a label only (N-terminal biotin on a linker: ttds)"}}, "data": [{"binder": "NLNSSRVPDLLV", "note": "[SARS-CoV2-E, P0DTC4]", "values": [{"measurement": "pKd", "setting": "APBA3_2, O96018; [1]", "value": "below the threshold"}, {"measurement": "pKd", "setting": "INTU, Q9ULD6; [1]", "value": "below the threshold"}, {"measurement": "pKd", "setting": "LNX1_4, Q8TBB1; [1]", "value": "below the threshold"}, {"measurement": "pKd", "setting": "MAGI1_3, Q96QZ7; [1]", "value": "below the threshold"}, {"measurement": "pKd", "setting": "MPDZ_2, O75970; [1]", "value": "below the threshold"}, {"measurement": "pKd", "setting": "NHERF1_2, O14745; [1]", "value": 4.76}, {"measurement": "pKd", "setting": "NHERF4_3, Q86UT5; [1]", "value": "below the threshold"}, {"measurement": "pKd", "setting": "PARD3B_3, Q8TEW8; [1]", "value": "below the threshold"}, {"measurement": "pKd", "setting": "PARD6B, Q9BYG5; [1]", "value": "below the threshold"}, {"measurement": "pKd", "setting": "PDLIM4, P50479; [1]", "value": "below the threshold"}, {"measurement": "pKd", "setting": "PDZD2_3, O15018; [1]", "value": "below the threshold"}, {"measurement": "pKd", "setting": "PDZD2_5, O15018; [1]", "value": "below the threshold"}, {"measurement": "pKd", "setting": "PDZD8, Q8NEN9; [1]", "value": "below the threshold"}, {"measurement": "pKd", "setting": "PTPN13_5, Q12923; [1]", "value": "below the threshold"}, {"measurement": "pKd", "setting": "PTPN4, P29074; [1]", "value": "below the threshold"}, {"measurement": "pKd", "setting": "RGS3, P49796-9; [1]", "value": "below the threshold"}, {"measurement": "pKd", "setting": "RIMS1, Q86UR5; [1]", "value": "below the threshold"}, {"measurement": "pKd", "setting": "SHROOM2, Q13796; [1]", "value": "below the threshold"}, {"measurement": "pKd", "setting": "SIPA1L3, O60292; [1]", "value": "below the threshold"}, {"measurement": "pKd", "setting": "SYNPO2L, Q9H987; [1]", "value": "below the threshold"}, {"measurement": "pKd", "setting": "TJP3_2, O95049; [1]", "value": "below the threshold"}, {"measurement": "pKd", "setting": "USH1C_3, Q9Y6N9; [1]", "value": "below the threshold"}]}, {"binder": "RLQRRRETQV", "note": "[HPV18-E6, P06463]", "values": [{"measurement": "pKd", "setting": "APBA3_2, O96018; [2]", "value": "below the threshold"}, {"measurement": "pKd", "setting": "INTU, Q9ULD6; [2]", "value": "below the threshold"}, {"measurement": "pKd", "setting": "LNX1_4, Q8TBB1; [2]", "value": 4.03}, {"measurement": "pKd", "setting": "MAGI1_3, Q96QZ7; [2]", "value": "below the threshold"}, {"measurement": "pKd", "setting": "MPDZ_2, O75970; [2]", "value": "below the threshold"}, {"measurement": "pKd", "setting": "NHERF1_2, O14745; [2]", "value": "below the threshold"}, {"measurement": "pKd", "setting": "NHERF4_3, Q86UT5; [2]", "value": "below the threshold"}, {"measurement": "pKd", "setting": "PARD3B_3, Q8TEW8; [2]", "value": "below the threshold"}, {"measurement": "pKd", "setting": "PARD6B, Q9BYG5; [2]", "value": "below the threshold"}, {"measurement": "pKd", "setting": "PDLIM4, P50479; [2]", "value": "below the threshold"}, {"measurement": "pKd", "setting": "PDZD2_3, O15018; [2]", "value": "below the threshold"}, {"measurement": "pKd", "setting": "PDZD2_5, O15018; [2]", "value": "below the threshold"}, {"measurement": "pKd", "setting": "PDZD8, Q8NEN9; [2]", "value": "below the threshold"}, {"measurement": "pKd", "setting": "PTPN13_5, Q12923; [2]", "value": "below the threshold"}, {"measurement": "pKd", "setting": "PTPN4, P29074; [2]", "value": 4.62}, {"measurement": "pKd", "setting": "RGS3, P49796-9; [2]", "value": "below the threshold"}, {"measurement": "pKd", "setting": "RIMS1, Q86UR5; [2]", "value": "below the threshold"}, {"measurement": "pKd", "setting": "SHROOM2, Q13796; [2]", "value": "below the threshold"}, {"measurement": "pKd", "setting": "SIPA1L3, O60292; [2]", "value": "below the threshold"}, {"measurement": "pKd", "setting": "SYNPO2L, Q9H987; [2]", "value": "below the threshold"}, {"measurement": "pKd", "setting": "TJP3_2, O95049; [2]", "value": "below the threshold"}, {"measurement": "pKd", "setting": "USH1C_3, Q9Y6N9; [2]", "value": "below the threshold"}]}, {"binder": "SKPTRRETEV", "note": "[HPV35-E6, P27228]", "values": [{"measurement": "pKd", "setting": "APBA3_2, O96018; [2]", "value": "below the threshold"}, {"measurement": "pKd", "setting": "INTU, Q9ULD6; [2]", "value": "below the threshold"}, {"measurement": "pKd", "setting": "LNX1_4, Q8TBB1; [2]", "value": 3.49}, {"measurement": "pKd", "setting": "MAGI1_3, Q96QZ7; [2]", "value": 4.09}, {"measurement": "pKd", "setting": "MPDZ_2, O75970; [2]", "value": "below the threshold"}, {"measurement": "pKd", "setting": "NHERF1_2, O14745; [2]", "value": "below the threshold"}, {"measurement": "pKd", "setting": "NHERF4_3, Q86UT5; [2]", "value": 3.78}, {"measurement": "pKd", "setting": "PARD3B_3, Q8TEW8; [2]", "value": 3.73}, {"measurement": "pKd", "setting": "PARD6B, Q9BYG5; [2]", "value": "below the threshold"}, {"measurement": "pKd", "setting": "PDLIM4, P50479; [2]", "value": 4.16}, {"measurement": "pKd", "setting": "PDZD2_3, O15018; [2]", "value": "below the threshold"}, {"measurement": "pKd", "setting": "PDZD2_5, O15018; [2]", "value": 3.77}, {"measurement": "pKd", "setting": "PDZD8, Q8NEN9; [2]", "value": "below the threshold"}, {"measurement": "pKd", "setting": "PTPN13_5, Q12923; [2]", "value": "below the threshold"}, {"measurement": "pKd", "setting": "PTPN4, P29074; [2]", "value": 4.03}, {"measurement": "pKd", "setting": "RGS3, P49796-9; [2]", "value": "below the threshold"}, {"measurement": "pKd", "setting": "RIMS1, Q86UR5; [2]", "value": "below the threshold"}, {"measurement": "pKd", "setting": "SHROOM2, Q13796; [2]", "value": "below the threshold"}, {"measurement": "pKd", "setting": "SIPA1L3, O60292; [2]", "value": "below the threshold"}, {"measurement": "pKd", "setting": "SYNPO2L, Q9H987; [2]", "value": "below the threshold"}, {"measurement": "pKd", "setting": "USH1C_3, Q9Y6N9; [2]", "value": "below the threshold"}]}]}
